From patent US20020137019A1 (NEW YORK UNIVERSITY, published 2002) come the findings set out here.

T1: B42-AR18-500 (rat androgen receptor N-terminus, residues 18-500, fused to the B42 activation domain) (rat, UniProt P15207 18-500)
T1 construct: range 18-500; Yeast two-hybrid bait, galactose-inducible; also called AR18-500-AD; pJG4-5:AR18-500
T1 sequence (looked up): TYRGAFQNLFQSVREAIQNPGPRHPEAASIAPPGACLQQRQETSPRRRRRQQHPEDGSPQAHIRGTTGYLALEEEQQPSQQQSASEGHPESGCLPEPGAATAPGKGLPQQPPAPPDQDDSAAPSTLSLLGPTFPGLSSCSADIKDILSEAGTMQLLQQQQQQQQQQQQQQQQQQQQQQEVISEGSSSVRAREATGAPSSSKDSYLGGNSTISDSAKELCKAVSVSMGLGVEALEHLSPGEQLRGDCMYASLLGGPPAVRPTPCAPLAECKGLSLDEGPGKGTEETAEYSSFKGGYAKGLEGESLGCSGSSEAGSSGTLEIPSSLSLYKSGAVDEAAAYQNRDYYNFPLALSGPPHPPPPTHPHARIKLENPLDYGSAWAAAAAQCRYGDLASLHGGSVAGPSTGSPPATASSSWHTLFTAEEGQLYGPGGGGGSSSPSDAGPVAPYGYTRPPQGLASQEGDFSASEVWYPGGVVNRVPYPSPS

T2: ART-5 (LexA DNA binding domain fusion) (UniProt P0A7C2 1-202, limits assumed)
T2 construct: Clone from an LNCaP prostate cancer cell cDNA library
T2 sequence: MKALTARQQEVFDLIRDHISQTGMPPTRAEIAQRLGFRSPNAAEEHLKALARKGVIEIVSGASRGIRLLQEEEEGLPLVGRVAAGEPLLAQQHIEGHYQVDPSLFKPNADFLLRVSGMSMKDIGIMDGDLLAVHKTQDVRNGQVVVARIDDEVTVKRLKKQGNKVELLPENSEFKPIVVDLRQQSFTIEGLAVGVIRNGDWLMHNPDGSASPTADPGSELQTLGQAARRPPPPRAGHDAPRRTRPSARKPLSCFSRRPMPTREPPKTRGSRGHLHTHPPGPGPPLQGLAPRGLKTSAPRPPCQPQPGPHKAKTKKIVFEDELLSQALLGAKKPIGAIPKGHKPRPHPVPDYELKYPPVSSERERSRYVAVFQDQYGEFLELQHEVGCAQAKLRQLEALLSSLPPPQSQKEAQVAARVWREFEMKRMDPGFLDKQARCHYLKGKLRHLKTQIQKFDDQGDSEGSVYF

B1: LexA-ART-27 1-45 (other, UniProt P0A7C2 1-202, looked up)
chain: MKALTARQQEVFDLIRDHISQTGMPPTRAEIAQRLGFRSPNAAEEHLKALARKGVIEIVSGASRGIRLLQEEEEGLPLVGRVAAGEPLLAQQHIEGHYQVDPSLFKPNADFLLRVSGMSMKDIGIMDGDLLAVHKTQDVRNGQVVVARIDDEVTVKRLKKQGNKVELLPENSEFKPIVVDLRQQSFTIEGLAVGVIRNGDWLMATPPKRRAVEATGEKVLRYETFISDVLQRDLRKVLDHRDKVYEQ
notes: also called ART-27 derivative 1-45
B2: LexA-ART-27 1-45/127-157 (other, UniProt P0A7C2 1-202, looked up)
chain: MKALTARQQEVFDLIRDHISQTGMPPTRAEIAQRLGFRSPNAAEEHLKALARKGVIEIVSGASRGIRLLQEEEEGLPLVGRVAAGEPLLAQQHIEGHYQVDPSLFKPNADFLLRVSGMSMKDIGIMDGDLLAVHKTQDVRNGQVVVARIDDEVTVKRLKKQGNKVELLPENSEFKPIVVDLRQQSFTIEGLAVGVIRNGDWLMATPPKRRAVEATGEKVLRYETFISDVLQRDLRKVLDHRDKVYEQDSMNIKAHIHMLLEGLRELQGLQNFPEKPHH
notes: The two fragments were joined through a BamHI site
B3: B42-AR18-156 (receptor, rat, UniProt P15207 18-156, looked up, not shown: large carriers)
chain: TYRGAFQNLFQSVREAIQNPGPRHPEAASIAPPGACLQQRQETSPRRRRRQQHPEDGSPQAHIRGTTGYLALEEEQQPSQQQSASEGHPESGCLPEPGAATAPGKGLPQQPPAPPDQDDSAAPSTLSLLGPTFPGLSSC
B4: LexA-ART-27 68-157 (other, UniProt P0A7C2 1-202, looked up)
chain: MKALTARQQEVFDLIRDHISQTGMPPTRAEIAQRLGFRSPNAAEEHLKALARKGVIEIVSGASRGIRLLQEEEEGLPLVGRVAAGEPLLAQQHIEGHYQVDPSLFKPNADFLLRVSGMSMKDIGIMDGDLLAVHKTQDVRNGQVVVARIDDEVTVKRLKKQGNKVELLPENSEFKPIVVDLRQQSFTIEGLAVGVIRNGDWLYMQVDLGCNFFVDTVVPDTSRIYVALGYGFFLELTLAEALKFIDRKSSLLTELSNSLTKDSMNIKAHIHMLLEGLRELQGLQNFPEKPHH
B5: LexA-ART-27 127-157 (other, UniProt P0A7C2 1-202, looked up)
chain: MKALTARQQEVFDLIRDHISQTGMPPTRAEIAQRLGFRSPNAAEEHLKALARKGVIEIVSGASRGIRLLQEEEEGLPLVGRVAAGEPLLAQQHIEGHYQVDPSLFKPNADFLLRVSGMSMKDIGIMDGDLLAVHKTQDVRNGQVVVARIDDEVTVKRLKKQGNKVELLPENSEFKPIVVDLRQQSFTIEGLAVGVIRNGDWLDSMNIKAHIHMLLEGLRELQGLQNFPEKPHH
B6: ART-37 (LexA DNA binding domain fusion) (other)
chain: MKALTARQQEVFDLIRDHISQTGMPPTRAEIAQRLGFRSPNAAEEHLKALARKGVIEIVSGASRGIRLLQEEEEGLPLVGRVAAGEPLLAQQHIEGHYQVDPSLFKPNADFLLRVSGMSMKDIGIMDGDLLAVHKTQDVRNGQVVVARIDDEVTVKRLKKQGNKVELLPENSEFKPIVVDLRQQSFTIEGLAVGVIRNGDWLEFGTRARFTRGKSALLERALARPRTEVSLSAFALLSPSWYSTARAVFSVAELQSRLAALGRQVGARVLDALVAREKGARRETKVLGALLFVKGAVWKALFGKEADKLEQANDDARTFYIIEREPLINTYISVPKENSTLNCASFTAGIVEAVLTHSGFPAKVTAHWHKGTTLMIKFEEAVIARDRLEGR
notes: Clone from an LNCaP prostate cancer cell cDNA library
B7: rat AR ligand binding domain (AR579-901) in pJG4-5 (receptor, UniProt P15207 579-901, looked up, not shown: large carriers)
chain: ASRNDCTIDKFRRKNCPSCRLRKCYEAGMTLGARKLKKLGNLKLQEEGENSSAGSPTEDPSQKMTVSHIEGYECQPIFLNVLEAIEPGVVCAGHDNNQPDSFAALLSSLNELGERQLVHVVKWAKALPGFRNLHVDDQMAVIQYSWMGLMVFAMGWRSFTNVNSRMLYFAPDLVFNEYRMHKSRMYSQCVRMRHLSQEFGWLQITPQEFLCMKALLLFSIIPVDGLKNQKFFDELRMNYIKELDRIIACKRKNPTSCSRRFYQLTKLLDSVQPIARELHQFTFDLLIKSHMVSVDFPEMMAEIISVQVPKILSGKVKPIYFHT
notes: range 579-901
B8: LexA-ART-27 46-157 (other, UniProt P0A7C2 1-202, looked up)
chain: MKALTARQQEVFDLIRDHISQTGMPPTRAEIAQRLGFRSPNAAEEHLKALARKGVIEIVSGASRGIRLLQEEEEGLPLVGRVAAGEPLLAQQHIEGHYQVDPSLFKPNADFLLRVSGMSMKDIGIMDGDLLAVHKTQDVRNGQVVVARIDDEVTVKRLKKQGNKVELLPENSEFKPIVVDLRQQSFTIEGLAVGVIRNGDWLLAKYLQLRNVIERLQEAKHSELYMQVDLGCNFFVDTVVPDTSRIYVALGYGFFLELTLAEALKFIDRKSSLLTELSNSLTKDSMNIKAHIHMLLEGLRELQGLQNFPEKPHH
B9: B42-AR153-336 (receptor, rat, UniProt P15207 153-336, looked up, not shown: large carriers)
chain: LSSCSADIKDILSEAGTMQLLQQQQQQQQQQQQQQQQQQQQQQEVISEGSSSVRAREATGAPSSSKDSYLGGNSTISDSAKELCKAVSVSMGLGVEALEHLSPGEQLRGDCMYASLLGGPPAVRPTPCAPLAECKGLSLDEGPGKGTEETAEYSSFKGGYAKGLEGESLGCSGSSEAGSSGTLE
B10: LexA-ART-27 1-67 (other, UniProt P0A7C2 1-202, looked up)
chain: MKALTARQQEVFDLIRDHISQTGMPPTRAEIAQRLGFRSPNAAEEHLKALARKGVIEIVSGASRGIRLLQEEEEGLPLVGRVAAGEPLLAQQHIEGHYQVDPSLFKPNADFLLRVSGMSMKDIGIMDGDLLAVHKTQDVRNGQVVVARIDDEVTVKRLKKQGNKVELLPENSEFKPIVVDLRQQSFTIEGLAVGVIRNGDWLMATPPKRRAVEATGEKVLRYETFISDVLQRDLRKVLDHRDKVYEQLAKYLQLRNVIERLQEAKHSEL
notes: also called ART-27 derivative 1-67

Test [1] has as its target B42-AR18-500 (rat androgen receptor N-terminus, residues 18-500, fused to the B42 activation domain) (rat) (UniProt P15207). As to the kind of experiment: cell-based or functional assay.
For test [2], the target named is T1, B42-AR18-500 (rat androgen receptor …). As to the kind of experiment: modified yeast two-hybrid, plate beta-galactosidase assay.
The target in test [3] is T3, ART-27 (full length, 1-157; LexA DNA binding domain fusion) (human, UniProt P0A7C2 1-202; Q9UBK9 1-157).
T3 construct: also called LexA-ART-27; pEG202:ART-27
As to the kind of experiment: modified yeast two-hybrid, liquid beta-galactosidase assay.

Test [4] has as its target T1, B42-AR18-500 (rat androgen receptor …). As to the kind of experiment: modified yeast two-hybrid screen of a LexA-LNCaP cDNA library.
The target of test [5] is B6. As to the kind of experiment: modified yeast two-hybrid, plate beta-galactosidase assay.
Test [6] deals with T2, ART-5 (LexA DNA binding domain fusion). The test is described as above.
In test [7] the target is T3, ART-27 (full length, 1-157; LexA DNA …). The test is described as above.
Test [8] shares this target. As to the kind of experiment: modified yeast interaction-trap assay, liquid beta-galactosidase.

On to “LexA vector alone (from UniProt P0A7C2 1-202)”, for which the quantitative liquid beta-galactosidase assay (modified yeast two-hybrid) (unit of activity) in test [1] was 1.

With B1, the binding result in test [2] is given as “no binding”.

B2: in test [2], the binding result is “no binding”.

As to B3, in test [3], the binding result was “no binding”.

Consider B4, for which the binding result in test [2] is given as “no binding”.

As for B5, the binding result in test [2] was “no binding”.

As to B6, in test [4], the binding result is “binds”.

With B7, the binding result in test [5], in test [6] and in test [7] was “no binding” in each case.

As for B8, the binding result in test [2] is “no binding”.

B9: in test [8], the binding result is “binds”.

As to B10, the binding result in test [2] is given as “no binding”.
